This is an account of results in PMC5458344.

In test [1] the target is GST-emerin (amino acids 1–176, lacking the TM domain) (UniProt P50402). Nature of the test: reverse GST pull-down with western blot densitometry. Conditions: lysates of U2OS cells transfected with GFP-nesprin-1α2 WT or mutant; three independent experiments, mean ± SEM; parent: est. 1.0; read off a plot. (In general: Immunoblotting shows a protein as a band on a membrane.)
Test [2] deals with GST-lamin A (amino acids 356–665, containing nesprin-1/2 binding domain) (UniProt P02545). Described as above. To be noted: lysates of U2OS cells transfected with GFP-nesprin-1α2 WT or mutant; three independent experiments, mean ± SEM; parent: est. 1.0; read off a plot.
For test [3], the target named is emerin (endogenous) (UniProt P50402). Nature of the test: GST pull-down with western blot densitometry. To be noted: U2OS cell lysate; three independent experiments, mean ± SEM; parent: est. 1.0; read off a plot.
For test [4], the target named is lamin A/C (endogenous, U2OS lysate; lamin A and lamin C bands quantified together). In words: GST pull-down with western blot densitometry. To be noted: U2OS cell lysate; three independent experiments, mean ± SEM; parent: est. 1.0; read off a plot.
In test [5] the target is Myc-SUN2 (full length) (UniProt Q9UH99). Nature of the test: GST pull-down with western blot densitometry. To be noted: lysate of U2OS cells transfected with Myc-SUN2 (full length); three independent experiments, mean ± SEM; parent: est. 1.0; read off a plot.
Sequence of UniProt Q9UH99 (Q9UH99 whole entry): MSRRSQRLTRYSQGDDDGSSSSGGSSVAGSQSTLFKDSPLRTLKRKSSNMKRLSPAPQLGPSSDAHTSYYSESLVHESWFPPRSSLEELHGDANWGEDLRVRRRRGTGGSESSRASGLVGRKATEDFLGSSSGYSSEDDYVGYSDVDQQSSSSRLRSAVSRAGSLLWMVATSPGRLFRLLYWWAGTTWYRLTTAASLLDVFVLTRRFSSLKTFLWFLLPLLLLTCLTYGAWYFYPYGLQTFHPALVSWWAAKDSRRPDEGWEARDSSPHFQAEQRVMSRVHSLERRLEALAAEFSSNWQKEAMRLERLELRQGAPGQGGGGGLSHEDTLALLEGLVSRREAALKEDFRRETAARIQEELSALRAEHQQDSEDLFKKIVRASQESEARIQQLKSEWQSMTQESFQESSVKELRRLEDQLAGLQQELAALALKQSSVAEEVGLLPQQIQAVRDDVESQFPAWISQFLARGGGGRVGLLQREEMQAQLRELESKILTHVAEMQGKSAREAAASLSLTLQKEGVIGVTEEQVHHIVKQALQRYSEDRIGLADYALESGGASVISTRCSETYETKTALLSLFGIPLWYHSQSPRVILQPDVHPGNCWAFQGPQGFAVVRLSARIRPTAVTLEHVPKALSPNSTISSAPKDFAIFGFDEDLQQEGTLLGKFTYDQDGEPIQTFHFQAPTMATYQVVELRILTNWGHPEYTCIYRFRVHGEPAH

Sequence of UniProt P02545 (P02545 356-664): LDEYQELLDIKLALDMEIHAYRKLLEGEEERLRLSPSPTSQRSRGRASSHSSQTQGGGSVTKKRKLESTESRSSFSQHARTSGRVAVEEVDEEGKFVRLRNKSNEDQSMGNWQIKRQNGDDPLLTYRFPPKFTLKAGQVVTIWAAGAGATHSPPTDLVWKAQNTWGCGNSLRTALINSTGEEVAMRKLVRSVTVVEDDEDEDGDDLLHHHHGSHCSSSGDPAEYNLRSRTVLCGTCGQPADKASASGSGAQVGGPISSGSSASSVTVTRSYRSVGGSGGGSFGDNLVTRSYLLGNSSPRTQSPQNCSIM

In the case of GFP-tagged nesprin-1α2 WT N8406K, the values for the ratio to parent in test [1] and in test [2] were 1.1 and 0.31, respectively.

Consider GFP-tagged nesprin-1α2 WT R8272Q, for which the ratio to parent in test [1] came out at 1.1; in test [2], 0.33.

Consider GFP-tagged nesprin-1α2 WT S8381C, for which the results for the ratio to parent in test [1] and in test [2] were 0.93 and 0.17, respectively.

Regarding “GST-tagged WT nesprin-1α2 SR1-6 (lacking KASH domain) N8406K”, the ratio to parent was 1.2 in test [3], 0.17 in test [4] and 0.15 in test [5].

Consider “GST-tagged WT nesprin-1α2 SR1-6 (lacking KASH domain) R8272Q”, for which the ratio to parent in test [3] is 1; in test [4] it was 0.18; in test [5], 0.25.

In the case of “GST-tagged WT nesprin-1α2 SR1-6 (lacking KASH domain) S8381C”, the ratio to parent in test [3] was found to be 0.87; in test [4], 0.12; in test [5], 0.19.
